{"source": "the supplement of paper PMC5998384", "key": {"HeLa Kyoto [1]": {"system": "HeLa Kyoto", "assay": "solubility in G1/S (NP-40 vs SDS abundance) (log2 ratio); higher = more soluble", "conditions": "cell cycle stage: G1/S"}, "HeLa Kyoto [2]": {"system": "HeLa Kyoto", "assay": "melting temperature (median over replicates), in situ; higher = more thermally stable"}, "HeLa Kyoto [3]": {"system": "HeLa Kyoto", "assay": "solubility change mitosis vs G1/S (difference of NP-40 vs SDS log2 ratios) (log2 ratio difference); higher = more soluble in mitosis"}, "HeLa Kyoto [4]": {"system": "HeLa Kyoto", "assay": "thermal stability score vs G1/S (z-score of summed log2 fold changes over temperatures); higher = more thermally stable than in G1/S"}, "[5]": {"conditions": "cell cycle stage: early G1 (4.5 h after nocodazole release)"}}, "data": [{"sequence": "MSGDSSGRGPEGRGRGRDPHRDRTRSRSRSRSPLSPRSRRGSARERREAPERPSLEDTEPSDSGDEMMDPASLEAEADQGLCRQIRHQYRALINSVQQNREDILNAGDKLTEVLEEANTLFNEVSRAREAVLDAHFLVLASDLGKEKAKQLRSDLSSFDMLRYVETLLTHMGVNPLEAEELIRDEDSPDFEFIVYDSWKITGRTAENTFNKTHTFHFLLGSIYGECPVPKPRVDRPRKVPVIQEERAMPAQLRRMEESHQEATEKEVERILGLLQTYFREDPDTPMSFFDFVVDPHSFPRTVENIFHVSFIIRDGFARIRLDQDRLPVIEPVSINEENEGFEHNTQVRNQGIIALSYRDWEEIVKTFEISEPVITPSQRQQKPSA [NSMCE4A]", "values": [{"measurement": "solubility in G1/S (log2)", "setting": "HeLa Kyoto [1]", "value": 0.182}, {"measurement": "melting temperature", "setting": "HeLa Kyoto [2]; cell cycle stage: G1/S", "value": 49.9, "unit": "°C"}, {"measurement": "melting temperature", "setting": "HeLa Kyoto [2]; cell cycle stage: mitosis", "value": 50.2, "unit": "°C"}, {"measurement": "solubility change mitosis (log2)", "setting": "HeLa Kyoto [3]", "value": 0.00196}, {"measurement": "thermal stability score", "setting": "HeLa Kyoto [4]; [5]", "value": -2.46}, {"measurement": "thermal stability score", "setting": "HeLa Kyoto [4]; cell cycle stage: mitosis", "value": -1.49}]}, {"sequence": "MSGELPPNINIKEPRWDQSTFIGRANHFFTVTDPRNILLTNEQLESARKIVHDYRQGIVPPGLTENELWRAKYIYDSAFHPDTGEKMILIGRMSAQVPMNMTITGCMMTFYRTTPAVLFWQWINQSFNAVVNYTNRSGDAPLTVNELGTAYVSATTGAVATALGLNALTKHVSPLIGRFVPFAAVAAANCINIPLMRQRELKVGIPVTDENGNRLGESANAAKQAITQVVVSRILMAAPGMAIPPFIMNTLEKKAFLKRFPWMSAPIQVGLVGFCLVFATPLCCALFPQKSSMSVTSLEAELQAKIQESHPELRRVYFNKGL [SFXN1]", "values": [{"measurement": "solubility in G1/S (log2)", "setting": "HeLa Kyoto [1]", "value": 0.371}, {"measurement": "melting temperature", "setting": "HeLa Kyoto [2]; cell cycle stage: G1/S", "value": 54.4, "unit": "°C"}, {"measurement": "melting temperature", "setting": "HeLa Kyoto [2]; cell cycle stage: mitosis", "value": 54.8, "unit": "°C"}, {"measurement": "solubility change mitosis (log2)", "setting": "HeLa Kyoto [3]", "value": -0.0506}, {"measurement": "thermal stability score", "setting": "HeLa Kyoto [4]; [5]", "value": -0.303}, {"measurement": "thermal stability score", "setting": "HeLa Kyoto [4]; cell cycle stage: mitosis", "value": -0.959}]}, {"sequence": "MSGEPGQTSVAPPPEEVEPGSGVRIVVEYCEPCGFEATYLELASAVKEQYPGIEIESRLGGTGAFEIEINGQLVFSKLENGGFPYEKDLIEAIRRASNGETLEKITNSRPPCVIL [MIEN1]", "values": [{"measurement": "solubility in G1/S (log2)", "setting": "HeLa Kyoto [1]", "value": 0.353}, {"measurement": "melting temperature", "setting": "HeLa Kyoto [2]; cell cycle stage: G1/S", "value": 50.8, "unit": "°C"}, {"measurement": "melting temperature", "setting": "HeLa Kyoto [2]; cell cycle stage: mitosis", "value": 51.1, "unit": "°C"}, {"measurement": "solubility change mitosis (log2)", "setting": "HeLa Kyoto [3]", "value": -0.0195}, {"measurement": "thermal stability score", "setting": "HeLa Kyoto [4]; [5]", "value": -1.21}, {"measurement": "thermal stability score", "setting": "HeLa Kyoto [4]; cell cycle stage: mitosis", "value": 0.00566}]}, {"sequence": "MSGFDDPGIFYSDSFGGDAQADEGQARKSQLQRRFKEFLRQYRVGTDRTGFTFKYRDELKRHYNLGEYWIEVEMEDLASFDEDLADYLYKQPAEHLQLLEEAAKEVADEVTRPRPSGEEVLQDIQVMLKSDASPSSIRSLKSDMMSHLVKIPGIIIAASAVRAKATRISIQCRSCRNTLTNIAMRPGLEGYALPRKCNTDQAGRPKCPLDPYFIMPDKCKCVDFQTLKLQELPDAVPHGEMPRHMQLYCDRYLCDKVVPGNRVTIMGIYSIKKFGLTTSRGRDRVGVGIRSSYIRVLGIQVDTDGSGRSFAGAVSPQEEEEFRRLAALPNVYEVISKSIAPSIFGGTDMKKAIACLLFGGSRKRLPDGLTRRGDINLLMLGDPGTAKSQLLKFVEKCSPIGVYTSGKGSSAAGLTASVMRDPSSRNFIMEGGAMVLADGGVVCIDEFDKMREDDRVAIHEAMEQQTISIAKAGITTTLNSRCSVLAAANSVFGRWDETKGEDNIDFMPTILSRFDMIFIVKDEHNEERDVMLAKHVITLHVSALTQTQAVEGEIDLAKLKKFIAYCRVKCGPRLSAEAAEKLKNRYIIMRSGARQHERDSDRRSSIPITVRQLEAIVRIAEALSKMKLQPFATEADVEEALRLFQVSTLDAALSGTLSGVEGFTSQEDQEMLSRIEKQLKRRFAIGSQVSEHSIIKDFTKQKYPEHAIHKVLQLMLRRGEIQHRMQRKVLYRLK [MCM5]", "values": [{"measurement": "solubility in G1/S (log2)", "setting": "HeLa Kyoto [1]", "value": -0.322}, {"measurement": "melting temperature", "setting": "HeLa Kyoto [2]; cell cycle stage: G1/S", "value": 51.9, "unit": "°C"}, {"measurement": "melting temperature", "setting": "HeLa Kyoto [2]; cell cycle stage: mitosis", "value": 51.4, "unit": "°C"}, {"measurement": "solubility change mitosis (log2)", "setting": "HeLa Kyoto [3]", "value": -0.0997}, {"measurement": "thermal stability score", "setting": "HeLa Kyoto [4]; [5]", "value": 1.16}, {"measurement": "thermal stability score", "setting": "HeLa Kyoto [4]; cell cycle stage: mitosis", "value": 0.714}]}, {"sequence": "MSGFSPELIDYLEGKISFEEFERRREERKTREKKSLQEKGKLSAEENPDDSEVPSSSGINSTKSQDKDVNEGETSDGVRKSVHKVFASMLGENEDDEEEEEEEEEEEEEEETPEQPTAGDVFVLEMVLNRETKKMMKEKRPRSKLPRALRGLMGEANIRFARGEREEAILMCMEIIRQAPLAYEPFSTLAMIYEDQGDMEKSLQFELIAAHLNPSDTEEWVRLAEMSLEQDNIKQAIFCYTKALKYEPTNVRYLWERSSLYEQMGDHKMAMDGYRRILNLLSPSDGERFMQLARDMAKSYYEANDVTSAINIIDEAFSKHQGLVSMEDVNIAAELYISNKQYDKALEIITDFSGIVLEKKTSEEGTSEENKAPENVTCTIPDGVPIDITVKLMVCLVHLNILEPLNPLLTTLVEQNPEDMGDLYLDVAEAFLDVGEYNSALPLLSALVCSERYNLAVVWLRHAECLKALGYMERAAESYGKVVDLAPLHLDARISLSTLQQQLGQPEKALEALEPMYDPDTLAQDANAAQQELKLLLHRSTLLFSQGKMYGYVDTLLTMLAMLLKVAMNRAQVCLISSSKSGERHLYLIKVSRDKISDSNDQESANCDAKAIFAVLTSVLTKDDWWNLLLKAIYSLCDLSRFQEAELLVDSSLEYYSFYDDRQKRKELEYFGLSAAILDKNFRKAYNYIRIMVMENVNKPQLWNIFNQVTMHSQDVRHHRFCLRLMLKNPENHALCVLNGHNAFVSGSFKHALGQYVQAFRTHPDEPLYSFCIGLTFIHMASQKYVLRRHALIVQGFSFLNRYLSLRGPCQESFYNLGRGLHQLGLIHLAIHYYQKALELPPLVVEGIELDQLDLRRDIAYNLSLIYQSSGNTGMAQTLLYTYCSI [GTF3C3]", "values": [{"measurement": "solubility in G1/S (log2)", "setting": "HeLa Kyoto [1]", "value": -0.231}, {"measurement": "melting temperature", "setting": "HeLa Kyoto [2]; cell cycle stage: G1/S", "value": 45.9, "unit": "°C"}, {"measurement": "melting temperature", "setting": "HeLa Kyoto [2]; cell cycle stage: mitosis", "value": 49.1, "unit": "°C"}, {"measurement": "solubility change mitosis (log2)", "setting": "HeLa Kyoto [3]", "value": -0.0144}, {"measurement": "thermal stability score", "setting": "HeLa Kyoto [4]; [5]", "value": 2.95}, {"measurement": "thermal stability score", "setting": "HeLa Kyoto [4]; cell cycle stage: mitosis", "value": 5.2}]}]}
